The values below come from publication PMC3353419 (2013).

The test deals with T1, Haptoglobin (Homo sapiens, UniProt P00738).
T1 chain: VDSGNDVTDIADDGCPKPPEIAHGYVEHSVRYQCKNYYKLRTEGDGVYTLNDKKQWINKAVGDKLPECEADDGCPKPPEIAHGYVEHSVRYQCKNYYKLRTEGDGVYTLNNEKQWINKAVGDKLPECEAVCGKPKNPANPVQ
Nature of the test: SPR. Background: SPR reads the build-up and loss of mass on a sensor chip optically.

B1: Hemoglobin (protein)
chain 1: not shown
chain 2: not shown
modifications: dextran (10 kDa)-linker at beta Cys93
Broadly, the Kd is the free concentration of one partner at which half of the binding sites on the other are occupied at equilibrium, for simple one-to-one binding. The molecule B1 registered a Kd of 0.823 nM. This counts as sub-nanomolar.
